Among the data in patent publication US20060099689A1 are inhibition of processing values, retold here.

Assay in all cases: cell-based or functional assay
Assay [1] has as its target H-GST-DEVD/X-mLIF with X = E (murine) (UniProt P09056).
The target of assay [2] is H-GST-DEVD/X-mLIF with X = proline (P) (murine) (UniProt P09056).
The target of assay [3] is H-GST-DEVD/X-mLIF with X = D (murine) (UniProt P09056).

Take “murine Caspase-3 (from UniProt P70677 29-175; P70677 176-277) (enzyme)”: the inhibition of processing in assay [1] is 25%; in assay [2], 75%; in assay [3] it was 25%.
